Measured values reported in US20150259426A1 (Novartis, published 2015).

B1: 11H6-Hu penta (11H6 hu pentamer) (other)
chain: EVQLLESGGGLVQPGGSLRLSCAASGTFDKINNMGWYRQAPGKQRDLVAQITPGGITDYADSVKGRFTISRDNSKNTLYLQMNSLRPEDTAVYYCNAEILKRAYIDVYVNYWGQGTLVTVSSGGGGSGGGGSGGGGSGGGGSGGGGSGGGGSGGGGSEVQLLESGGGLVQPGGSLRLSCAASGTFDKINNMGWYRQAPGKQRDLVAQITPGGITDYADSVKGRFTISRDNSKNTLYLQMNSLRPEDTAVYYCNAEILKRAYIDVYVNYWGQGTLVTVSSGGGGSGGGGSGGGGSGGGGSGGGGSGGGGSGGGGSEVQLLESGGGLVQPGGSLRLSCAASGTFDKINNMGWYRQAPGKQRDLVAQITPGGITDYADSVKGRFTISRDNSKNTLYLQMNSLRPEDTAVYYCNAEILKRAYIDVYVNYWGQGTLVTVSSGGGGSGGGGSGGGGSGGGGSGGGGSGGGGSGGGGSEVQLLESGGGLVQPGGSLRLSCAASGTFDKINNMGWYRQAPGKQRDLVAQITPGGITDYADSVKGRFTISRDNSKNTLYLQMNSLRPEDTAVYYCNAEILKRAYIDVYVNYWGQGTLVTVSSGGGGSGGGGSGGGGSGGGGSGGGGSGGGGSGGGGSEVQLLESGGGLVQPGGSLRLSCAASGTFDKINNMGWYRQAPGKQRDLVAQITPGGITDYADSVKGRFTISRDNSKNTLYLQMNSLRPEDTAVYYCNAEILKRAYIDVYVNYWGQGTLVTVSS
B2: 4E6-Hu penta (4E6 hu pentamer) (other)
chain: EVQLLESGGGLVQPGGSLRLSCAASGRTFGSIRVGWFRQAPGKGREFVSAINRNDGTTYYADSVKGRFTISRDNSKNTVYLQMNSLRPEDTAVYYCAAGLQYNRAADRVPVGAVYWGQGTLVTVSSGGGGSGGGGSGGGGSGGGGSGGGGSGGGGSGGGGSEVQLLESGGGLVQPGGSLRLSCAASGRTFGSIRVGWFRQAPGKGREFVSAINRNDGTTYYADSVKGRFTISRDNSKNTVYLQMNSLRPEDTAVYYCAAGLQYNRAADRVPVGAVYWGQGTLVTVSSGGGGSGGGGSGGGGSGGGGSGGGGSGGGGSGGGGSEVQLLESGGGLVQPGGSLRLSCAASGRTFGSIRVGWFRQAPGKGREFVSAINRNDGTTYYADSVKGRFTISRDNSKNTVYLQMNSLRPEDTAVYYCAAGLQYNRAADRVPVGAVYWGQGTLVTVSSGGGGSGGGGSGGGGSGGGGSGGGGSGGGGSGGGGSEVQLLESGGGLVQPGGSLRLSCAASGRTFGSIRVGWFRQAPGKGREFVSAINRNDGTTYYADSVKGRFTISRDNSKNTVYLQMNSLRPEDTAVYYCAAGLQYNRAADRVPVGAVYWGQGTLVTVSSGGGGSGGGGSGGGGSGGGGSGGGGSGGGGSGGGGSEVQLLESGGGLVQPGGSLRLSCAASGRTFGSIRVGWFRQAPGKGREFVSAINRNDGTTYYADSVKGRFTISRDNSKNTVYLQMNSLRPEDTAVYYCAAGLQYNRAADRVPVGAVYWGQGTLVTVSS

Molecular target: cell-bound human DR5 (Colo205 and other human cell lines) (human, UniProt O14763 56-440)
Assay: cell-based or functional assay

Row | Binder | IC50, cell survival, A549 | IC50, cell survival, BxPC-3 | IC50, cell survival, Colo205 | IC50, cell survival, H226 | IC50, cell survival, H2122 | IC50, cell survival, Jurkat (72) | IC50, cell survival, M30 | IC50, cell survival, MiaPaCa-2 | IC50, cell survival, Panc-1 | IC50, cell survival, T24 | fold improvement of IC50, penta against tetra, A549 | fold improvement of IC50, penta against tetra, BxPC-3 | fold improvement of IC50, penta against tetra, Colo205 | fold improvement of IC50, penta against tetra, H226 | fold improvement of IC50, penta against tetra, H2122 | fold improvement of IC50, penta against tetra, Jurkat (72) | fold improvement of IC50, penta against tetra, M30 | fold improvement of IC50, penta against tetra, MiaPaCa-2 | fold improvement of IC50, penta against tetra, Panc-1 | fold improvement of IC50, penta against tetra, T24
1 | B1 | > 10000 pM | 4.6 pM | 1.2 pM | 12.4 pM | 1.7 pM | 1.7 pM | > 10000 pM | 3.1 pM | 6.7 pM | 3.1 pM | 1 fold | 3 fold | 3 fold | 14 fold | 2 fold | 4 fold | 1 fold | 4 fold | 35 fold | 7 fold
2 | B2 | > 10000 pM | 5 pM | 0.7 pM | 27.2 pM | 0.8 pM | 3.6 pM | > 10000 pM | 3.8 pM | 10.5 pM | 4.3 pM | 1 fold | 6 fold | 5 fold | 5 fold | 7 fold | 5 fold | 1 fold | 5 fold | 22 fold | 10 fold
